Experimental data reported in patent publication US20030022853A1.

Key:
[1] = target: pure human c-JUN protein (full length, Promega) (human) (UniProt P05412); test: laser fluorescence quenching assay, 1 µg antibody + 1 µg c-JUN + 0.075 pmole JD1F/2F, 50 mM NaCl
[2] = target: pure human c-JUN protein (full length, Promega) (human) (UniProt P05412); test: laser fluorescence quenching assay, 750 ng antibody + 250 ng c-JUN + 0.075 pmole JD1F/2F, 50 mM NaCl
[3] = target: pure human c-JUN protein (full length, Promega) (human) (UniProt P05412); test: laser fluorescence quenching assay, 750 ng antibody + 250 ng c-JUN + 0.075 pmole JD1F/2F, 50 mM NaCl (c-JUN:DNA alone 11%)
[4] = target: pure human c-JUN protein (full length, Promega) (human) (UniProt P05412); test: laser fluorescence quenching assay, 5 µg antibody + 1 µg c-JUN + 0.075 pmole JD1F/2F, 50 mM NaCl
[5] = target: pure human c-JUN protein (full length, Promega) (human) (UniProt P05412); test: laser fluorescence quenching assay, 1 µg antibody + 1 µg c-JUN + 0.075 pmole JD1F/2F, 50 mM NaCl (c-JUN:DNA alone 25%)
[6] = target: pure human c-JUN protein (full length, Promega) (human) (UniProt P05412); test: laser fluorescence quenching assay, 5 µg antibody + 1 µg c-JUN + 0.075 pmole JD1F/2F, 50 mM NaCl (c-JUN:DNA alone 25%)

Sequence of UniProt P05412 (P05412 whole entry): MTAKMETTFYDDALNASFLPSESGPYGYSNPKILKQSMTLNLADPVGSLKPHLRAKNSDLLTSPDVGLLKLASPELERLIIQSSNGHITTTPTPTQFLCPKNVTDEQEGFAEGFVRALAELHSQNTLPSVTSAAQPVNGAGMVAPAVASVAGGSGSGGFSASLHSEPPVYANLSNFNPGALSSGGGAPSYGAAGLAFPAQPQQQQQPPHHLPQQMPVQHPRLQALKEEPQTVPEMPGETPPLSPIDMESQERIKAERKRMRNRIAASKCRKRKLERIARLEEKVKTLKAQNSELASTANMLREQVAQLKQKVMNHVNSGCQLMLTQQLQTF

monoclonal IgG1 antibody, c-JUN (KM-1) (Santa Cruz Biotechnology)
further decrease in fluorescent intensity from the c-JUN:DNA complex [1]: 12%
further decrease in fluorescent intensity from the c-JUN:DNA complex [2]: 16%
decrease in fluorescent intensity compared to DNA alone [3]: 27%
further decrease in fluorescent intensity from the c-JUN:DNA complex [4]: 17%
decrease in fluorescent intensity compared to DNA alone [5]: 37%
decrease in fluorescent intensity compared to DNA alone [6]: 42%
